{
  "source": "paper PMC7078208",
  "about": "“Interaction of SHP-2 SH2 domains with PD-1 ITSM induces PD-1 dimerization and SHP-2 activation” (Communications Biology, 2020)",
  "key": {"[1]": {"system": "PD-1-SmBiT: PD-1-LgBiT complex (PD-1: PD-1 interaction) in HEK-293 cells", "experiment": "NanoBiT assay for PD-1 dimerization in HEK-293 cells", "format": "cell-based, human", "settings": "HEK-293 transfected with PD-1-SmBiT, active Fyn and SHP-2, increasing amounts, Fig. 4e"}, "[2]": {"target": "SHP-2 wild-type full-length, purified recombinant protein (UniProt Q06124)"}, "[3]": {"target": "t-SHP-2 (SHP-2 amino acids 1-225, tandem N-SH2 and C-SH2 domains) (UniProt Q06124)", "experiment": "ITC; MicroCal ITC200; peptide (50-100 uM) titrated into t-SHP-2 (3-5 uM), 19 injections, 20 C; 50 mM HEPES pH 7.4, 100 mM NaCl, 5 mM TCEP"}, "SHP-2-full-length": {"target": "T1, SHP-2-full-length (Homo sapiens, UniProt Q06124)", "T1 construct": "glutathione-S-transferase (GST) fusions to SHP-2 wild-type full-length (SHP-2-WT-FL) using the pGEX 4T-3 vector; GST (N, cleaved yes); made in house; host or cells: E. coli BL21(D3)LysS", "T1 sequence (Q06124 1-593)": "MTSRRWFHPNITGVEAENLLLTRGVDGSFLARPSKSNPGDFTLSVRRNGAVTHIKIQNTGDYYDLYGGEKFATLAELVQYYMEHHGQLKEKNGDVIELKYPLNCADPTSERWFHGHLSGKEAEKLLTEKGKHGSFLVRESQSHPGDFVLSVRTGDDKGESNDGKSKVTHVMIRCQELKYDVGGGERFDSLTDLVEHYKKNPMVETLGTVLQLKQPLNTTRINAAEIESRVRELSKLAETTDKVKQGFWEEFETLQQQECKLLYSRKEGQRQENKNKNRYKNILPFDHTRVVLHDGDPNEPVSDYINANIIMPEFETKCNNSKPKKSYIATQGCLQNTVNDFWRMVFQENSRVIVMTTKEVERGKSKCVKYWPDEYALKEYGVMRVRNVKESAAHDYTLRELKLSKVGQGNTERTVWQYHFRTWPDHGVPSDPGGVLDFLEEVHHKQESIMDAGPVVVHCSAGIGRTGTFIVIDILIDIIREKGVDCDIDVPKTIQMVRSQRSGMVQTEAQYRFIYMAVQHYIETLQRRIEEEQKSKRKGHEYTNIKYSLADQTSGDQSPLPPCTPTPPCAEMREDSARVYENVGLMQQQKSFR", "experiment": "SPR: SHP-2-full-length binding to immobilized PD-1 phosphopeptides", "settings": "identical conditions as for ITSM-pY248 surface"}, "SHP-2-WT": {"system": "SHP-2-WT", "experiment": "SHP-2 phosphatase activity, DiFMUP substrate", "format": "biochemical"}, "SHP-2 [4]": {"target": "SHP-2 (UniProt Q06124)", "experiment": "PD-1 IP, SHP-2 blot", "settings": "reference: PD-1 wild type; sites Y248"}, "SHP-2 [5]": {"target": "SHP-2 (UniProt Q06124)", "experiment": "PD-1 IP, FLAG (SHP-2) blot", "settings": "reference: PD-1 wild type; sites Y248"}, "PD1LgY223F": {"target": "PD1LgY223F", "experiment": "NanoBiT proximity assay (split luciferase) in HEK-293 cells", "settings": "PD1SmY223F + PD1LgY223F + SHP2WT, Fyn (-) kinase inactive; parent: est. 100; read off a plot"}, "PD1LgY248F": {"target": "PD1LgY248F", "experiment": "NanoBiT proximity assay (split luciferase) in HEK-293 cells", "settings": "PD1SmY248F + PD1LgY248F + SHP2WT, Fyn (-) kinase inactive; parent: est. 100; read off a plot"}, "SHP-2 1-225 [6]": {"target": "SHP-2 1-225 (UniProt Q06124)", "experiment": "native PAGE mobility shift", "settings": "reference: PD-1cyto-pITIM-pITSM (pY223 + pY248)"}, "SHP-2 1-225 [7]": {"target": "SHP-2 1-225 (UniProt Q06124)", "experiment": "ITC", "settings": "reference: PD-1cyto-pITIM-pITSM (pY223 + pY248); sites Y248"}, "SHP-2-R138A": {"system": "SHP-2-R138A", "experiment": "SHP-2 phosphatase activity, DiFMUP substrate, R138A mutant", "format": "biochemical", "settings": "Fig. 5c", "procedure": "(§1) Catalytic activity of SHP-2 was monitored by a fluorescent assay using the substrate 6,8-difluoro-4-[…] (DiFMUP) as previously with slight modifications[38],[68]. Specifically, the phosphatase reactions were performed in 50 mM HEPES, pH 7.4, 100 mM NaCl and 10 mM DTT in 96-well black polystyrene plate, flat bottom, non-binding surface, using a final reaction volume of 100 µl. In all, 1.6 µg/ml of SHP-2-WT or mutant proteins were incubated with 20 µM DiFMUP with the indicated concentrations of phosphotyrosyl peptides or without peptide at 37 °C. For some experiments with highly SHP-2-activating peptides we used 0.5 µg/ml of SHP-2-WT so that activity measurements could fall within range. Fluorescence signal was monitored every 1 min for 3 min by a SpectraMax5 microplate reader and reaction rate was calculated by the change of fluorescence signal with time using excitation and emission wavelengths of 340 nm and 450 nm, respectively. Under these conditions, product formation was linear with respect to the time of incubation. Results were normalized against the basal activity determined for each condition in the absence of peptide and activity was calculated."}, "SHP-2-R32A": {"system": "SHP-2-R32A", "experiment": "SHP-2 phosphatase activity, DiFMUP substrate, R32A mutant", "format": "biochemical", "settings": "4-Ahx spacer peptide; Fig. 5c", "procedure": "as §1"}},
  "note": "Square brackets hold non-standard residues; d marks the D form. Ends that are not written are not given here. pY = N[C@@H](Cc1ccc(OP(=O)(O)O)cc1)C(=O)O",
  "data": [
    {"compound": "CC1(N)CCN(c2cnc(-c3cccc(Cl)c3Cl)c(N)n2)CC1", "note": "[SHP099]", "values": [
      {"measurement": "effect on PD-1: PD-1 interaction", "setting": "[1]", "value": "dose-dependent inhibition of PD-1: PD-1 interaction"}
    ]},
    {"compound": "Bisphosphoryl ITSM peptide pITSM-Ahx4-pITSM (bpITSM)", "values": [
      {"measurement": "potency in inducing SHP-2 phosphatase activity relative to the bisphosphoryl peptide bpIRS", "setting": "[2]", "value": 3, "unit": "fold"}
    ]},
    {"compound": "Bisphosphoryl peptide of native sequence of PD-1 cytoplasmic tail (PD-1cyto-pITIM-pITSM)", "values": [
      {"measurement": "stoichiometry N (peptide per t-SHP-2)", "setting": "[3]", "value": 1}
    ]},
    {"compound": "KEDPSAVPVFSVD[pY]GELDFQWRE [pITIM, monophosphorylated human PD-1 ITIM-pY223 phosphopeptide]", "values": [
      {"measurement": "specific interaction of SHP-2 protein with peptide-coated surface", "setting": "SHP-2-full-length", "value": "no specific interaction"},
      {"measurement": "increase in the catalytic activity of SHP-2 compared to negative control pIRSY727", "setting": "SHP-2-WT; DiFMUP substrate, Fig. 5a", "value": "did not induce an increase"},
      {"measurement": "effect on SHP-2 activation induced by bpITSM (competition)", "setting": "SHP-2-WT; bpITSM 0.01 µM with increasing amounts of monophosphorylated peptide, Fig. 5d", "value": "only when added at very high molar concentrations (1000x excess of bpITSM)"}
    ]},
    {"compound": "Monophosphoryl peptide of native sequence of PD-1 cytoplasmic tail (PD-1cyto-ITIM-pITSM)", "values": [
      {"measurement": "stoichiometry N (peptide per t-SHP-2)", "setting": "[3]", "value": 2}
    ]},
    {"compound": "PD-1 (from UniProt Q15116) PD-1 Y248F", "values": [
      {"measurement": "binding against the reference", "setting": "SHP-2 [4]", "value": "lost"},
      {"measurement": "binding against the reference", "setting": "SHP-2 [5]", "value": "lost"}
    ]},
    {"compound": "PD-1 NanoBiT fusions (PD-1-LgBiT and PD-1-SmBiT) in HEK-293 cells with kinase-inactive Fyn (from UniProt Q15116) Y223F", "values": [
      {"measurement": "response", "setting": "PD1LgY223F", "value": 90, "unit": "RLU"}
    ]},
    {"compound": "PD-1 NanoBiT fusions (PD-1-LgBiT and PD-1-SmBiT) in HEK-293 cells with kinase-inactive Fyn (from UniProt Q15116) Y248F", "values": [
      {"measurement": "response", "setting": "PD1LgY248F", "value": 80, "unit": "RLU"}
    ]},
    {"compound": "PD-1 cytoplasmic tail peptide (from UniProt Q15116) PD-1cyto-ITIM-pITSM (pY248 only)", "values": [
      {"measurement": "binding against the reference", "setting": "SHP-2 1-225 [6]; sites Y223", "value": "same"}
    ]},
    {"compound": "PD-1 cytoplasmic tail peptide (from UniProt Q15116) PD-1cyto-pITIM-ITSM (pY223 only)", "values": [
      {"measurement": "binding against the reference", "setting": "SHP-2 1-225 [6]; sites Y248", "value": "lost"},
      {"measurement": "KD", "setting": "SHP-2 1-225 [7]", "value": "lost; reference 0.0159"}
    ]},
    {"compound": "TE(pY)ATIVFP-Ahx4-QTE(pY)ATIVFPS [bpITSM, bisphosphoryl ITSM-ITSM peptide with 4-Ahx spacer]", "values": [
      {"measurement": "SHP-2 activity caused by peptide", "setting": "SHP-2-R138A; 4-Ahx spacer peptide", "value": "abrogated"},
      {"measurement": "peptide concentration at which a small induction of SHP-2 activity was observed", "setting": "SHP-2-R138A", "value": "above 1 µM"},
      {"measurement": "fold lower phosphopeptide concentration for robust increase in SHP-2 activity than pITIM-pITSM", "setting": "SHP-2-WT; DiFMUP substrate, Fig. 5a", "value": 1000, "unit": "fold"},
      {"measurement": "potency in inducing SHP-2 activation compared with bpIRS", "setting": "SHP-2-WT; Supplementary Fig. 12, peptides at 20 nM", "value": "approximately three times more potent"},
      {"measurement": "SHP-2 activity caused by peptide", "setting": "SHP-2-R32A", "value": "abrogated"}
    ]}
  ]
}
